Measured values reported in IntAct's records for PubMed 9371806.

B1: Achaete-scute complex protein T4 (Drosophila melanogaster (Fruit fly)), P10084 (parent)
chain: MKNNNNTTKSTTMSSSVLSTNETFPTTINSATKIFRYQHIMPAPSPLIPGGNQNQPAGTMPIKTRKYTPRGMALTRCSESVSSLSPGSSPAPYNVDQSQSVQRRNARERNRVKQVNNSFARLRQHIPQSIITDLTKGGGRGPHKKISKVDTLRIAVEYIRRLQDLVDDLNGGSNIGANNAVTQLQLCLDESSSHSSSSSTCSSSGHNTYYQNTISVSPLQQQQQLQRQQFNHQPLTALSLNTNLVGTSVPGGDAGCVSTSKNQQTCHSPTSSFNSSMSFDSGTYEGVPQQISTHLDRLDHLDNELHTHSQLQLKFEPYEHFQLDEEDCTPDDEEILDYISLWQEQ
partner: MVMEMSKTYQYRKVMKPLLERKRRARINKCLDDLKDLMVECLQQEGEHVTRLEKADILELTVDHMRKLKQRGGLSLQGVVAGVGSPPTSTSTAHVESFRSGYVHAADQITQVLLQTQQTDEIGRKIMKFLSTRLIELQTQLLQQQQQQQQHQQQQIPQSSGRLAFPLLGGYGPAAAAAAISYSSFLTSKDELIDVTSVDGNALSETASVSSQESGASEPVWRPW
B2: Achaete-scute complex protein T4 (Drosophila melanogaster (Fruit fly)), P10084 (parent)
chain: B1 chain
partner: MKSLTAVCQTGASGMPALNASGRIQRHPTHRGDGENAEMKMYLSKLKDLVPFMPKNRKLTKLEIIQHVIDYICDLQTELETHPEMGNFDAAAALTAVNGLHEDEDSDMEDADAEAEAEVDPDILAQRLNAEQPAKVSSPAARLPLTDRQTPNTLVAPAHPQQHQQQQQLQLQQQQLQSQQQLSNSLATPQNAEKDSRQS

Variants of: B1
Details: with esm3_drome E(spl)m3-HLH

Variant | effect of a mutation on the interaction
MKNNNNTTKSTTMSSSVLSTNETFPTTINSATKIFRYQHIMPAPSPLIPGGNQNQPAGTMPIKTRKYTPRGMALTRCSESVSSLSPGSSPAPYNVDQSQSVQRRNARERNRVKQVNNSFARLRQHIPQSIITDLTKGGGRGPHKKISKVDTLRIAVEYIRRLQDLVDDLNGGSNIGANNAVTQLQLCLDESSSHSSSSSTCSSSGHNTYYQNTISVSPLQQQQQLQRQQFNHQPLTALSLNTNLVGTSVPGGDAGCVSTSKNQQTCHSPTSSFNSSMSFDSGTYEGVPQQISTHLDRLDHLDNELHTHSQLQLKFEPYEHFQLDEEDCTPDDEEILDYIDLWQEQ [S340D] | increasing interaction

Variants of: B2
Details: with emc_drome emc

Variant | effect of a mutation on the interaction
MKNNNNTTKSTTMSSSVLSTNETFPTTINSATKIFRYQHIMPAPSPLIPGGNQNQPAGTMPIKTRKYTPRGMALTRCSESVSSLSPGSSPAPYNVDQSQSVQRRNARERNRVKQVNNSFARLRQHIPQSIITDLTKGGGRGPHKKISKVDTLRIAVEYIRRLQDLVDDLNGGSNIGANNAVTQLQLCLDESSSHSSSSSTCSSSGHNTYYQNTISVSPLQQQQQLQRQQFNHQPLTALSLNTNLVGTSVPGGDAGCVSTSKNQQTCHSPTSSFNSSMSFDSGTYEGVPQQISTHLDRLDHLDNELHTHSQLQLKFEPYEHFQLDEEDCTPDDEEILDYIDLWQEQ [S340D] | decreasing interaction
